The chains are these.
B1: MKK6 D-site peptide / p38-alpha (MAPK14) L195A, full length (parent complex)
chain 1: SQSKGKKRNPGLKIPKEAFEQP
chain 2: MSQERPTFYRQELNKTVWEVPERYQNLSPVGSGAYGSVCAAFDTKTGHRVAVKKLSRPFQSIIHAKRTYRELRLLKHMKHENVIGLLDVFTPARSLEEFNDVYLVTHLMGADLNNIVKCQKLTDDHVQFLIYQILRGLKYIHSADIIHRDLKPSNLAVNEDCELKILDFGLARHTDDEMTGYVATRWYRAPEIMANWMHYNQTVDIWSVGCIMAELLTGRTLFPGTDHIDQLKLILRLVGTPGAELLKKISSESARNYIQSLAQMPKMNFANVFIGANPLAVDLLEKMLVLDSDKRITAAQALAHAYFAQYHDPDDEPVAEPYDQSFESRDFLIDEWKSLTYDEVISFVPPPLDQEEMES

Variants of B1 are the subject of the test.
Take chain 1 SQSKTKKRNPGLKIPKEAFEQP: the screen value is 1.67 Z-score of the enrichment rate within one screen of 711 sequences.

On to chain 1 SQSKKKKRNPGLKIPKEAFEQP, for which the screen value is 2.33 Z-score of the enrichment rate within one screen of 711 sequences.

Regarding chain 1 SQSKNKKRNPGLKIPKEAFEQP, the screen value was 1.64 Z-score of the enrichment rate within one screen of 711 sequences.

Regarding chain 1 SQSKMKKRNPGLKIPKEAFEQP, the screen value was 2.63 Z-score of the enrichment rate within one screen of 711 sequences.

On to chain 1 SQSKSKKRNPGLKIPKEAFEQP, for which the screen value was 1.65 Z-score of the enrichment rate within one screen of 711 sequences.

chain 1 SQSKFKKRNPGLKIPKEAFEQP: the screen value is 3.61 Z-score of the enrichment rate within one screen of 711 sequences.

Consider chain 1 SQSKGKKRNPSLKIPKEAFEQP, for which the screen value is 0.683 Z-score of the enrichment rate within one screen of 711 sequences.

Regarding chain 1 SQSKGKKRNPFLKIPKEAFEQP, the screen value is 1.14 Z-score of the enrichment rate within one screen of 711 sequences.

Regarding chain 1 SQSKGKKRNPYLKIPKEAFEQP, the screen value is 1.26 Z-score of the enrichment rate within one screen of 711 sequences.

For chain 1 SQSKGKKRNPKLKIPKEAFEQP, the screen value was 2.23 Z-score of the enrichment rate within one screen of 711 sequences.

As for chain 1 SQSKGKARNAGLKIPKEAFEQP, the screen value is -0.226 Z-score of the enrichment rate within one screen of 711 sequences.

In the case of chain 1 SQSKGKKRNPGLAIAKEAFEQP, the screen value was -0.309 Z-score of the enrichment rate within one screen of 711 sequences.

On to chain 1 SQSKGKKRNAGLKIAKEAFEQP, for which the screen value is 0.87 Z-score of the enrichment rate within one screen of 711 sequences.

Consider chain 1 SQSKGAKRNPGLKAPKEAFEQP, for which the screen value was -1.08 Z-score of the enrichment rate within one screen of 711 sequences.

Regarding chain 1 SQAKGKKRNPGLKIAKEAFEQP, the screen value is 2.7 Z-score of the enrichment rate within one screen of 711 sequences.

Take chain 1 SQSKGKARNPGLKIPAEAFEQP: the screen value was 0.0296 Z-score of the enrichment rate within one screen of 711 sequences.

For chain 1 SQSKGKKRNTGLKIPKEAFEQP, the screen value is 0.699 Z-score of the enrichment rate within one screen of 711 sequences.

Take chain 1 SQSKGKKRNFGLKIPKEAFEQP: the screen value was 0.865 Z-score of the enrichment rate within one screen of 711 sequences.

For chain 1 SQSKGKKRNYGLKIPKEAFEQP, the screen value was 0.723 Z-score of the enrichment rate within one screen of 711 sequences.

On to chain 1 SQSKGKKRNMGLKIPKEAFEQP, for which the screen value is 0.502 Z-score of the enrichment rate within one screen of 711 sequences.

In the case of chain 1 SQSKGKKRNLGLKIPKEAFEQP, the screen value was 1.79 Z-score of the enrichment rate within one screen of 711 sequences.

Take chain 1 SQSKGKKRNSGLKIPKEAFEQP: the screen value was 0.158 Z-score of the enrichment rate within one screen of 711 sequences.

For the variant chain 1 SQSKGKKRNAGLKIPKEAFEQP, the screen value was 0.621 Z-score of the enrichment rate within one screen of 711 sequences.

On to chain 1 SQAKGKKRAPGLKIPKEAFEQP, for which the screen value was 1.3 Z-score of the enrichment rate within one screen of 711 sequences.

Consider chain 1 SQSKGKKRNPGLAIPAEAFEQP, for which the screen value was -0.809 Z-score of the enrichment rate within one screen of 711 sequences.

Turning to chain 1 SQSKGKKANPGAKIPKEAFEQP, the screen value is -0.76 Z-score of the enrichment rate within one screen of 711 sequences.

chain 1 SQSAGKARNPGLKIPKEAFEQP: the screen value was -0.395 Z-score of the enrichment rate within one screen of 711 sequences.

Regarding chain 1 SQSKAKKRNPGLKIAKEAFEQP, the screen value was 2.65 Z-score of the enrichment rate within one screen of 711 sequences.

Turning to chain 1 SQSKGAKRNPGLKIPAEAFEQP, the screen value was 0.354 Z-score of the enrichment rate within one screen of 711 sequences.

For chain 1 SQSKGAKRNPGLAIPKEAFEQP, the screen value was -0.984 Z-score of the enrichment rate within one screen of 711 sequences.

Turning to chain 1 SQSKGKKRAPGLAIPKEAFEQP, the screen value was -0.689 Z-score of the enrichment rate within one screen of 711 sequences.

Regarding chain 1 SQSKGKKANPGLKIPAEAFEQP, the screen value is -0.602 Z-score of the enrichment rate within one screen of 711 sequences.

Regarding chain 1 SQSKGKKRNPGLAAPKEAFEQP, the screen value is -0.745 Z-score of the enrichment rate within one screen of 711 sequences.

Turning to chain 1 SQSKAKKRNPGLKAPKEAFEQP, the screen value is -1.03 Z-score of the enrichment rate within one screen of 711 sequences.

As for chain 1 SQSKGKGRNPGLKIPKEAFEQP, the screen value was 1.17 Z-score of the enrichment rate within one screen of 711 sequences.

On to chain 1 SQSKGKDRNPGLKIPKEAFEQP, for which the screen value is -0.807 Z-score of the enrichment rate within one screen of 711 sequences.

On to chain 1 SQSKGKSRNPGLKIPKEAFEQP, for which the screen value is 0.9 Z-score of the enrichment rate within one screen of 711 sequences.

For chain 1 SQSKGKLRNPGLKIPKEAFEQP, the screen value was 1.83 Z-score of the enrichment rate within one screen of 711 sequences.

As to chain 1 SQSKGKKRNPGLRIPKEAFEQP, the screen value is 1.63 Z-score of the enrichment rate within one screen of 711 sequences.

In the case of chain 1 SQSKGKKRNPGLWIPKEAFEQP, the screen value was 0.592 Z-score of the enrichment rate within one screen of 711 sequences.

Regarding chain 1 SQSKGKKRNPGLAIPKEAFEQP, the screen value was -0.412 Z-score of the enrichment rate within one screen of 711 sequences.

Regarding chain 1 SQSKGKKRNPGLSIPKEAFEQP, the screen value was -0.0532 Z-score of the enrichment rate within one screen of 711 sequences.

On to chain 1 SQSKGKKRNPGLPIPKEAFEQP, for which the screen value was -0.836 Z-score of the enrichment rate within one screen of 711 sequences.

With chain 1 SQSKGKKRNPGLLIPKEAFEQP, the screen value was -0.274 Z-score of the enrichment rate within one screen of 711 sequences.

For chain 1 SQSKGKKRNPGLVIPKEAFEQP, the screen value was 0.144 Z-score of the enrichment rate within one screen of 711 sequences.

As to chain 1 SQSKGKKRNPGLTIPKEAFEQP, the screen value is 0.352 Z-score of the enrichment rate within one screen of 711 sequences.

As for chain 1 SQSKGKKRNPGLDIPKEAFEQP, the screen value is -0.943 Z-score of the enrichment rate within one screen of 711 sequences.

As for chain 1 SQSKGKKRNPGLGIPKEAFEQP, the screen value is -1.05 Z-score of the enrichment rate within one screen of 711 sequences.

For the variant chain 1 SQSKGKKRNPGLIIPKEAFEQP, the screen value is 0.477 Z-score of the enrichment rate within one screen of 711 sequences.

As to chain 1 SQSKGKKRNPGLNIPKEAFEQP, the screen value was -0.0907 Z-score of the enrichment rate within one screen of 711 sequences.
